The text below walks through data of the Human Domainome abundance scans (Beltran et al. 2025).

The chains are these.
B1: Apoptosis-associated speck-like protein containing a CARD, residues 114 to 194; numbered along this chain, Q9ULZ3 (parent)
chain: FIDQHRAALIARVTNVEWLLDALYGKVLTDEQYQAVRAEPTNPSKMRKLFSFTPAWNWTCKDLLLQALRESQSYLVEDLER

± gives the uncertainty stated by the source.

Variants of B1 are the subject of this data set. Description: abundance fitness (aPCA) (normalised: wild type 0, dead -1); higher = more abundant; growth selection in yeast, the domain comes from the species named. Particulars: Homo sapiens.
As for FIDQHRAALIARVTNVEWLLDALHGKVLTDEQYQAVRAEPTNPSKMRKLFSFTPAWNWTCKDLLLQALRESQSYLVEDLER, the abundance fitness came to 0.067 ± 0.077. Take FIDQHRAALIARVTNVEWLLDALYGKVLTDEQYQAVRAEPTNPSKMRKLFSFTPAWNWTCKDLLLQALREFQSYLVEDLER: the abundance fitness is -0.8 ± 0.14.

In the case of FIDQHRAALIARVTNVEWLLDALYGKVLTDEQYQAVRAEPTNPSKMRKLFSFTPAWNVTCKDLLLQALRESQSYLVEDLER, the abundance fitness worked out at 0.174 ± 0.054. Turning to FIDQHRAALIARVTNVEWLLDALYGKVLTDEQYQAVRAEPTNPSKMRKLFSFTPAWNITCKDLLLQALRESQSYLVEDLER, the abundance fitness is -0.217 ± 0.24. Under FIDQHRAALIARVTNVEWLLDALYGKVLTDEQYQAVRAEPTNPSKMRKLFSFTPAWNWTCKDLLLQALKESQSYLVEDLER stands 0.031 ± 0.088; under FIDQHRAALIARVTNVEWLLDALYGKVLTDEQYQAVRAEPTNPSKMRKLFSFTPAWNWTCKDLLLQALHESQSYLVEDLER, -0.517 ± 0.21; under FIDQHRAALIARVTNVEWLLDALYGKVFTDEQYQAVRAEPTNPSKMRKLFSFTPAWNWTCKDLLLQALRESQSYLVEDLER, -0.896 ± 0.23. Under FIDQHRAALIARVTNVEWLLDALYGKVLTDEQYQAWRAEPTNPSKMRKLFSFTPAWNWTCKDLLLQALRESQSYLVEDLER stands -0.74 ± 0.095; under FIDQHRAALIARVTNVEWLLDALYGKVLTDEQYQAVRAEPTNPSKMRKLFPFTPAWNWTCKDLLLQALRESQSYLVEDLER, -0.796 ± 0.06.

With FILQHRAALIARVTNVEWLLDALYGKVLTDEQYQAVRAEPTNPSKMRKLFSFTPAWNWTCKDLLLQALRESQSYLVEDLER, the abundance fitness was -0.881 ± 0.14.

In the case of FIPQHRAALIARVTNVEWLLDALYGKVLTDEQYQAVRAEPTNPSKMRKLFSFTPAWNWTCKDLLLQALRESQSYLVEDLER, the abundance fitness is -0.951 ± 0.21. Consider FIDQHRAALIARVTNVEWLLDALYGKVLTDEQYQAVRAEPTNPSKTRKLFSFTPAWNWTCKDLLLQALRESQSYLVEDLER, for which the abundance fitness is -0.77 ± 0.14. To FIDQHRAALIARVTNVEWLLDMLYGKVLTDEQYQAVRAEPTNPSKMRKLFSFTPAWNWTCKDLLLQALRESQSYLVEDLER belongs -0.183 ± 0.069. To FIDQHRAALIARVTNVEWLLDALYGKVLTDEQYQAVRAEPTNLSKMRKLFSFTPAWNWTCKDLLLQALRESQSYLVEDLER belongs -0.263 ± 0.046; to FIDQHRAALIARVTNVFWLLDALYGKVLTDEQYQAVRAEPTNPSKMRKLFSFTPAWNWTCKDLLLQALRESQSYLVEDLER, -0.97 ± 0.5; to FIDQHRAALIARVTNVGWLLDALYGKVLTDEQYQAVRAEPTNPSKMRKLFSFTPAWNWTCKDLLLQALRESQSYLVEDLER, -0.357 ± 0.044. Under FIDQHRAALIARVTNVNWLLDALYGKVLTDEQYQAVRAEPTNPSKMRKLFSFTPAWNWTCKDLLLQALRESQSYLVEDLER stands -0.286 ± 0.17; under FIDQHRAALIARVTNVEWLLDALYGKVLTDEQYQIVRAEPTNPSKMRKLFSFTPAWNWTCKDLLLQALRESQSYLVEDLER, -0.862 ± 0.44. As to FIDQHRAALIARVTNVEWLLDALYGKVLTDEQYQAVRAEPTNPSKMLKLFSFTPAWNWTCKDLLLQALRESQSYLVEDLER, the abundance fitness was -0.319 ± 0.052. Regarding FIDQHRAALIARVTNVEWLLDALYGKVLTDEQYQAVRAEPTNPSKMRKLFSFKPAWNWTCKDLLLQALRESQSYLVEDLER, the abundance fitness is -0.957 ± 0.27. Under FIDQHRAALIARVTNVEWLLDALYGKVLTDEQYQAVRAEPPNPSKMRKLFSFTPAWNWTCKDLLLQALRESQSYLVEDLER stands -0.845 ± 0.15; under FIDQHRAALIARVTNVEWLLDALYGKVLTDEQYQAVRAEPNNPSKMRKLFSFTPAWNWTCKDLLLQALRESQSYLVEDLER, 0.045 ± 0.1; under FIDQHRAALIARVTNVEWLLDALYGKVLTDEQYQAVRAEPTNPSKMRKLFSFTPAWNWTKKDLLLQALRESQSYLVEDLER, 0.041 ± 0.11. To FIDQHRAALIARVTNVEWLLDALYGKVLTDEQYQAVRAEPTNPSKMRKMFSFTPAWNWTCKDLLLQALRESQSYLVEDLER belongs -0.888 ± 0.16. Under FIDQHRAALIARVTNVEWLLDALYGKVLTDEQYQAVRAEPTNPSKMRKLFSFTPAWNWTCKDLLLQALRESQSYLVEDLDR stands -0.165 ± 0.088. On to FIDQHRAALIARVTNVEWLLDALYGKELTDEQYQAVRAEPTNPSKMRKLFSFTPAWNWTCKDLLLQALRESQSYLVEDLER, for which the abundance fitness is -0.731 ± 0.18. Under FIDIHRAALIARVTNVEWLLDALYGKVLTDEQYQAVRAEPTNPSKMRKLFSFTPAWNWTCKDLLLQALRESQSYLVEDLER stands -0.015 ± 0.12; under FIDMHRAALIARVTNVEWLLDALYGKVLTDEQYQAVRAEPTNPSKMRKLFSFTPAWNWTCKDLLLQALRESQSYLVEDLER, -0.161 ± 0.079; under FIDQHRAALIARVTNVEWLLDAMYGKVLTDEQYQAVRAEPTNPSKMRKLFSFTPAWNWTCKDLLLQALRESQSYLVEDLER, -0.392 ± 0.085.

For FIDQHRAALIARSTNVEWLLDALYGKVLTDEQYQAVRAEPTNPSKMRKLFSFTPAWNWTCKDLLLQALRESQSYLVEDLER, the abundance fitness is -0.535 ± 0.067. In the case of FIDQHRAALIARVTNVEWLLDALYGKVLTDEQYQAVRAEPTNPSKMRKLFSFTPAWNWTCKVLLLQALRESQSYLVEDLER, the abundance fitness is -0.646 ± 0.086. As to FIDQHRAALIARVTNVEWLLDALYGKVLTDEQYQAVRAEPTNPSKMRKLFSFTPALNWTCKDLLLQALRESQSYLVEDLER, the abundance fitness was -0.568 ± 0.061. To FIDQHRAALIAWVTNVEWLLDALYGKVLTDEQYQAVRAEPTNPSKMRKLFSFTPAWNWTCKDLLLQALRESQSYLVEDLER belongs -1.18 ± 0.29; to FIDQHRAALIARVTNVEWLLDALYGKVLTDLQYQAVRAEPTNPSKMRKLFSFTPAWNWTCKDLLLQALRESQSYLVEDLER, -0.461 ± 0.072. On to FIDQHRAALIARVTNVEWLLDALYGKVLTDEQYQAVRAEPTNPSKMRKLFSFTPAWNWTCKDLLRQALRESQSYLVEDLER, for which the abundance fitness was -0.361 ± 0.068.

FIDQHRAALIARVTNVEWLLDALYGKVLTDEQYQAVRAEPTNPSEMRKLFSFTPAWNWTCKDLLLQALRESQSYLVEDLER: the abundance fitness was -0.846 ± 0.19.

As for FIDQHRAALIARVTNVEWLLDALYGKVLTDEQYQAVRAEPTNPSKMRKLFSGTPAWNWTCKDLLLQALRESQSYLVEDLER, the abundance fitness was -0.943 ± 0.077. In the case of FIDQHRAALIARVTNVEWLLDALYGKVLTDEQYQAVRAEPTNPSKMRKLFSFTPAWNWTCKDLLLMALRESQSYLVEDLER, the abundance fitness was -0.252 ± 0.11. As for FIDQHRAALIARVTNVEWLLDALYGKVLTDEQYQAVRAEPTNPSKMRKLFSFTPAWNWTCKDLLLCALRESQSYLVEDLER, the abundance fitness is -0.487 ± 0.078. Take FIDQHRAALIARVTNVEWLLDALYGKVLTDEQYQAVRAEPTNPSKMRKLFSFTPAWNWTCKDLLLIALRESQSYLVEDLER: the abundance fitness was -0.178 ± 0.16. As for FIDQHRAALIARVTNVEWLLDALYGKVLTDEQYQAVRAEPTNPSKMRKLFSFTPAWNWTCKDLLLQALRESQSYLVPDLER, the abundance fitness is -0.66 ± 0.14. On to FIDQHRAALIARVTNVEWLLDALYGKVLTDEQYQAVRAEPTNPSKMRKLFSFTPAWNWTCKDLLLQALRESQNYLVEDLER, for which the abundance fitness was -0.022 ± 0.15.

FIDQHRAALSARVTNVEWLLDALYGKVLTDEQYQAVRAEPTNPSKMRKLFSFTPAWNWTCKDLLLQALRESQSYLVEDLER: the abundance fitness was -0.977 ± 0.15.

Turning to FIDQHRAALIARVTNVEWLLDALYGKVLTDEQYQAVRAEPTNPSKMRKLFSFTQAWNWTCKDLLLQALRESQSYLVEDLER, the abundance fitness is -0.064 ± 0.11. Under FIDQHRAALIARVTNVEWLLDALYGKVLTDEQYQAVRAEPTNPSKMRKLFSFTAAWNWTCKDLLLQALRESQSYLVEDLER stands 0.045 ± 0.052; under FIDQHRAALIARVTNVEWLLDALYGKVLTDEQYQAVRAEPTNPSKMRKLSSFTPAWNWTCKDLLLQALRESQSYLVEDLER, -0.822 ± 0.1. Under FIDQHRAALIARVTNVEWLLDALYGKVLTDEQYQAVRAEPTTPSKMRKLFSFTPAWNWTCKDLLLQALRESQSYLVEDLER stands -0.336 ± 0.11; under FIDQHRAALIARVTNVEWLLDALYGKVLTDEQYQAVRAEPTNPPKMRKLFSFTPAWNWTCKDLLLQALRESQSYLVEDLER, -0.868 ± 0.14. Under FIDQHRAALIARVTNYEWLLDALYGKVLTDEQYQAVRAEPTNPSKMRKLFSFTPAWNWTCKDLLLQALRESQSYLVEDLER stands -1.02 ± 0.42.

Regarding FIDQHRAALIARVTNEEWLLDALYGKVLTDEQYQAVRAEPTNPSKMRKLFSFTPAWNWTCKDLLLQALRESQSYLVEDLER, the abundance fitness is -0.928 ± 0.17. Under FIDQHRAALIARVTNGEWLLDALYGKVLTDEQYQAVRAEPTNPSKMRKLFSFTPAWNWTCKDLLLQALRESQSYLVEDLER stands -0.88 ± 0.087; under FIDQHRAALIARVTNVEWLLDALYGKVLTDEPYQAVRAEPTNPSKMRKLFSFTPAWNWTCKDLLLQALRESQSYLVEDLER, -0.941 ± 0.16; under FIDQHRAALIARVTNVEWLLDALYGKVLTDEDYQAVRAEPTNPSKMRKLFSFTPAWNWTCKDLLLQALRESQSYLVEDLER, -0.842 ± 0.27.

FIDQHRAALIARVTNVEWLLDALYGKVLTDELYQAVRAEPTNPSKMRKLFSFTPAWNWTCKDLLLQALRESQSYLVEDLER: the abundance fitness was -0.95 ± 0.13. Under FIDQHRAALIARVTNVEWLLDALYGKVLTDEQYIAVRAEPTNPSKMRKLFSFTPAWNWTCKDLLLQALRESQSYLVEDLER stands -0.81 ± 0.29. For the variant FIDQHRAALIARVTNVEWLLDALYGKVLTDEQYQAVWAEPTNPSKMRKLFSFTPAWNWTCKDLLLQALRESQSYLVEDLER, the abundance fitness was -0.373 ± 0.059.

Consider FIDQHRAALIARVTNVEWLLDALYGKVLTDEQQQAVRAEPTNPSKMRKLFSFTPAWNWTCKDLLLQALRESQSYLVEDLER, for which the abundance fitness is -0.546 ± 0.13. Under FIDQHRAALIARVTNVEWLLDALYGKVLTDEQIQAVRAEPTNPSKMRKLFSFTPAWNWTCKDLLLQALRESQSYLVEDLER stands -0.097 ± 0.14. With FIDQHRAALIARVTNVEWLCDALYGKVLTDEQYQAVRAEPTNPSKMRKLFSFTPAWNWTCKDLLLQALRESQSYLVEDLER, the abundance fitness amounted to 0.005 ± 0.08.

Regarding FIDQHRAALIARVTNVEWLPDALYGKVLTDEQYQAVRAEPTNPSKMRKLFSFTPAWNWTCKDLLLQALRESQSYLVEDLER, the abundance fitness is -0.543 ± 0.11. On to FIDQHRAALIARVTNVEWLLDALYCKVLTDEQYQAVRAEPTNPSKMRKLFSFTPAWNWTCKDLLLQALRESQSYLVEDLER, for which the abundance fitness was -0.582 ± 0.12.

For the variant FIDQHRAALIARVTNVEWLLDALYQKVLTDEQYQAVRAEPTNPSKMRKLFSFTPAWNWTCKDLLLQALRESQSYLVEDLER, the abundance fitness is -0.41 ± 0.1. For FIDQHRAALIARVTNVEWLLDALYGKVLTDEQYQAVRAEPTNPSKMRKLFSFTPAWNWTCKDLLLQALRESQSYLTEDLER, the abundance fitness was -0.558 ± 0.12.

Take FIDQHRAALIARVTNVEWLLDALYGKVLTDEQYQAVRAEPTNPSKMRKLFSFTPAWNWTCKDLLLQALRESQSYLGEDLER: the abundance fitness is -0.587 ± 0.075. With FIDQHRAALIARVTNVEWLLTALYGKVLTDEQYQAVRAEPTNPSKMRKLFSFTPAWNWTCKDLLLQALRESQSYLVEDLER, the abundance fitness was -0.313 ± 0.07. In the case of FIDQHRAALIARVTNVEILLDALYGKVLTDEQYQAVRAEPTNPSKMRKLFSFTPAWNWTCKDLLLQALRESQSYLVEDLER, the abundance fitness is 0.061 ± 0.12.

Turning to FIDQHRAALIARVTNVEQLLDALYGKVLTDEQYQAVRAEPTNPSKMRKLFSFTPAWNWTCKDLLLQALRESQSYLVEDLER, the abundance fitness worked out at 0.174 ± 0.06. To FIDQFRAALIARVTNVEWLLDALYGKVLTDEQYQAVRAEPTNPSKMRKLFSFTPAWNWTCKDLLLQALRESQSYLVEDLER belongs -0.553 ± 0.12.
